This series deals with Saccharomyces cerevisiae. Briefly: protein stability index of tFT-peptide fusion (C-terminal peptide) (PSI (0-1 scale)); higher = more stable (slower turnover). The note with it: temperature: 30 C. The method, then:
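MPS profiling in S. cerevisiae of the yeast C-terminome library: the last 12 aa of each annotated ORF are fused to the C-terminus of a sfGFP-mCherry timer, after a GGGS linker. Cells are FACS-sorted into 8 mCherry/sfGFP bins and deep-sequenced. PSI runs from 0 (unstable) to 1 (stable); wild type and das1Δ backgrounds, two technical replicates each.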

The mark [1] stands for this setting: genetic background: das1 deletion.

± gives the standard deviation of the averaged measurements.

RLLNLQKVIYST [LDB18 C-terminal 12 aa]: the protein stability index was found to be 0.662 ± 0.013 under setting [1] and 0.493 ± 0.064 (genetic background: wild type).

Regarding RMIEYLEEYQAW [FRE4 C-terminal 12 aa], the protein stability index by setting is: under setting [1], 0.706 ± 0.0073; (genetic background: wild type) 0.72 ± 0.011.

On to RNIDVSNLPSLA [STM1 C-terminal 12 aa], for which the protein stability index came out at 0.691 ± 0.011 under setting [1] and 0.6785 ± 0.0067 (genetic background: wild type).

Turning to RQVLDREGLRFG [TRS31 C-terminal 12 aa], the protein stability index runs as follows: under setting [1], 0.693 ± 0.027; (genetic background: wild type) 0.705 ± 0.0087.

With RRDVQSRSSMAC [HFL1 C-terminal 12 aa], the protein stability index was found to be 0.702 ± 0.02 under setting [1] and 0.652 ± 0.0097 (genetic background: wild type).

Regarding RREKRNKALKER [CGR1 C-terminal 12 aa], the protein stability index came to 0.7064 ± 0.0034 under setting [1] and 0.6945 ± 0.0019 (genetic background: wild type).

For RRKLKGRWFLSH [MRX14 C-terminal 12 aa], the protein stability index is, setting by setting: under setting [1], 0.702 ± 0.0078; (genetic background: wild type) 0.562 ± 0.0085.

“RRRLTYHRYHPK [YML009C-A C-terminal 12 aa]”: the protein stability index runs as follows: under setting [1], 0.731 ± 0.014; (genetic background: wild type) 0.722 ± 0.012.

In turn, RSASNRHVDYFL [PPG1 C-terminal 12 aa] registered a protein stability index under setting [1] of 0.6933 ± 0.0059 and a protein stability index (genetic background: wild type) of 0.698 ± 0.033.

With RSKLFNLSINNP [SPC72 C-terminal 12 aa], the protein stability index under setting [1] amounted to 0.6997 ± 0.001 and the protein stability index (genetic background: wild type) came to 0.6855 ± 0.0063.

Regarding RSRKNEGSYLMH [HMT1 C-terminal 12 aa], the protein stability index amounted to 0.6967 ± 0.00082 under setting [1] and 0.693 ± 0.0082 (genetic background: wild type).

Consider RSVYDYNGSLKV [CSR1 C-terminal 12 aa], for which the protein stability index by setting is: under setting [1], 0.686 ± 0.012; (genetic background: wild type) 0.691 ± 0.015.

For RTKGQKWFDGLM [NAT2 C-terminal 12 aa], the protein stability index under setting [1] was found to be 0.6819 ± 0.0031 and the protein stability index (genetic background: wild type) is 0.698 ± 0.016.

With RTSPIDNVSNTH [NUT2 C-terminal 12 aa], the protein stability index under setting [1] turned out to be 0.693 ± 0.0018 and the protein stability index (genetic background: wild type) was 0.693 ± 0.046.

RYNDERLGPVQG [IRC24 C-terminal 12 aa] came in with a protein stability index under setting [1] of 0.696 ± 0.021 and a protein stability index (genetic background: wild type) of 0.684 ± 0.043.

On to “SAGSLEYTARYM [YML012C-A C-terminal 12 aa]”, for which the protein stability index under setting [1] is 0.693 ± 0.036 and the protein stability index (genetic background: wild type) came out at 0.671 ± 0.0079.

Consider SANGYKRRRYGN [YHC1 C-terminal 12 aa], for which the protein stability index under setting [1] was found to be 0.716 ± 0.019 and the protein stability index (genetic background: wild type) stood at 0.732 ± 0.055.

For the sequence SASGKKKINKNN [ELO1 C-terminal 12 aa], the protein stability index runs as follows: under setting [1], 0.6991 ± 0.0036; (genetic background: wild type) 0.723 ± 0.042.

With SDDNNDENMDLD [SSE2 C-terminal 12 aa], the protein stability index runs as follows: under setting [1], 0.694 ± 0.014; (genetic background: wild type) 0.663 ± 0.018.

In the case of SDDQILREFLYS [IRE1 C-terminal 12 aa], the protein stability index was 0.726 ± 0.004 under setting [1] and 0.7 ± 0.025 (genetic background: wild type).

For the sequence SDISDLDDLGFL [RPN3 C-terminal 12 aa], the protein stability index under setting [1] is 0.7213 ± 0.0065 and the protein stability index (genetic background: wild type) amounted to 0.679 ± 0.028.

SDLQKMLNKRKS [CWC24 C-terminal 12 aa]: the protein stability index was found to be 0.69 ± 0.025 under setting [1] and 0.682 ± 0.0099 (genetic background: wild type).

On to SDMYDSKRLLYV [YPL035C C-terminal 12 aa], for which the protein stability index reads like this: under setting [1], 0.652 ± 0.033; (genetic background: wild type) 0.537 ± 0.034.

For SELENKFSNQES [FPY1 C-terminal 12 aa], the protein stability index is, setting by setting: under setting [1], 0.7048 ± 0.0039; (genetic background: wild type) 0.735 ± 0.053.

SETFATPTPNNR [SPC42 C-terminal 12 aa]: the protein stability index by setting is: under setting [1], 0.718 ± 0.022; (genetic background: wild type) 0.725 ± 0.01.

SFALVFKISAEV [YAR053W C-terminal 12 aa] gave a protein stability index under setting [1] of 0.448 ± 0.046 and a protein stability index (genetic background: wild type) of 0.489 ± 0.022.

On to SFDDGRVKRQRT [IOC3 C-terminal 12 aa], for which the protein stability index was 0.69 ± 0.014 under setting [1] and 0.715 ± 0.075 (genetic background: wild type).

Consider SFMSYSCDMPTP [YCL022C C-terminal 12 aa], for which the protein stability index runs as follows: under setting [1], 0.7225 ± 0.0042; (genetic background: wild type) 0.727 ± 0.071.

In the case of SFNFDHFDHFDL [YIL054W C-terminal 12 aa], the protein stability index by setting is: under setting [1], 0.733 ± 0.019; (genetic background: wild type) 0.743 ± 0.014.

For the sequence SGGWDRSIKLWN [PRP4 C-terminal 12 aa], the protein stability index amounted to 0.711 ± 0.01 under setting [1] and 0.681 ± 0.026 (genetic background: wild type).

As for SGNYFFLDNTGI [RLI1 C-terminal 12 aa], the protein stability index by setting is: under setting [1], 0.718 ± 0.015; (genetic background: wild type) 0.754 ± 0.056.

In the case of SGSGVHVIKRVG [ESS1 C-terminal 12 aa], the protein stability index is, setting by setting: under setting [1], 0.701 ± 0.0075; (genetic background: wild type) 0.65 ± 0.019.

As to SGWSNFEDFFSR [YKL222C C-terminal 12 aa], the protein stability index was 0.744 ± 0.021 under setting [1] and 0.77 ± 0.019 (genetic background: wild type).

In the case of SIKLTFGFGAVL [AHA1 C-terminal 12 aa], the protein stability index under setting [1] is 0.6981 ± 0.0022 and the protein stability index (genetic background: wild type) was determined as 0.711 ± 0.0087.

Regarding SIQWIWRYSFVY [YIR020C C-terminal 12 aa], the protein stability index is, setting by setting: under setting [1], 0.464 ± 0.0072; (genetic background: wild type) 0.44 ± 0.025.

Take SKDLGNVLTNLL [ESF2 C-terminal 12 aa]: the protein stability index reads like this: under setting [1], 0.6902 ± 0.005; (genetic background: wild type) 0.679 ± 0.035.

For SKFIEKFQDIVS [MED1 C-terminal 12 aa], the protein stability index turned out to be 0.701 ± 0.014 under setting [1] and 0.712 ± 0.018 (genetic background: wild type).

In turn, SKKNVLYQKKNN [RTT107 C-terminal 12 aa] showed a protein stability index under setting [1] of 0.69 ± 0.0099 and a protein stability index (genetic background: wild type) of 0.286 ± 0.014.

Regarding SKLVKEYSVELR [MSF1 C-terminal 12 aa], the protein stability index reads like this: under setting [1], 0.687 ± 0.019; (genetic background: wild type) 0.663 ± 0.05.

SKNTREEKPTEL [MMM1 C-terminal 12 aa]: the protein stability index came out at 0.698 ± 0.011 under setting [1] and 0.688 ± 0.018 (genetic background: wild type).

As for SKPALGTCLYEQ [GAL3 C-terminal 12 aa], the protein stability index under setting [1] was found to be 0.676 ± 0.0096 and the protein stability index (genetic background: wild type) was found to be 0.665 ± 0.03.

With “SLEKLEMSKYGL [YKL033W-A C-terminal 12 aa]”, the protein stability index was 0.6995 ± 0.0021 under setting [1] and 0.6694 ± 0.004 (genetic background: wild type).

As to SLRSFFVKQKVL [ERP6 C-terminal 12 aa], the protein stability index runs as follows: under setting [1], 0.641 ± 0.0083; (genetic background: wild type) 0.185 ± 0.025.

With SLSARKINMRKV [KRE9 C-terminal 12 aa], the protein stability index by setting is: under setting [1], 0.705 ± 0.033; (genetic background: wild type) 0.644 ± 0.014.

In the case of SMALRTVSILEN [YGL152C C-terminal 12 aa], the protein stability index reads like this: under setting [1], 0.683 ± 0.011; (genetic background: wild type) 0.649 ± 0.025.

SMKYPHTAALVR [YLR111W C-terminal 12 aa] came in with a protein stability index under setting [1] of 0.578 ± 0.027 and a protein stability index (genetic background: wild type) of 0.653 ± 0.072.

In turn, SNGFKEWRKSLK [RAI1 C-terminal 12 aa] returned a protein stability index under setting [1] of 0.6824 ± 0.0012 and a protein stability index (genetic background: wild type) of 0.67 ± 0.02.

Take SNSSSSQKAAKE [HST2 C-terminal 12 aa]: the protein stability index was 0.71 ± 0.033 under setting [1] and 0.651 ± 0.024 (genetic background: wild type).

Regarding SNWARIFFCHHD [YDL186W C-terminal 12 aa], the protein stability index runs as follows: under setting [1], 0.75 ± 0.015; (genetic background: wild type) 0.713 ± 0.028.

Take SPSPKPQHRRKR [ELO2 C-terminal 12 aa]: the protein stability index was 0.734 ± 0.025 under setting [1] and 0.704 ± 0.029 (genetic background: wild type).

For the sequence SQLLLFGFGAMV [MDM32 C-terminal 12 aa], the protein stability index turned out to be 0.6998 ± 0.0031 under setting [1] and 0.705 ± 0.031 (genetic background: wild type).

Turning to “SQSCPFFPLMDD [YDR246W-A C-terminal 12 aa]”, the protein stability index by setting is: under setting [1], 0.738 ± 0.012; (genetic background: wild type) 0.7463 ± 0.0073.

Take SQSKIKAKIRPE [YJL193W C-terminal 12 aa]: the protein stability index is, setting by setting: under setting [1], 0.7134 ± 0.0044; (genetic background: wild type) 0.666 ± 0.011.

Take SRFLKRKSHHDK [SEC1 C-terminal 12 aa]: the protein stability index was 0.687 ± 0.0091 under setting [1] and 0.723 ± 0.049 (genetic background: wild type).

Consider SRIELELKNIGL [ECM29 C-terminal 12 aa], for which the protein stability index is, setting by setting: under setting [1], 0.684 ± 0.0096; (genetic background: wild type) 0.762 ± 0.0041.

Regarding SRILQYKCIFTY [ARP8 C-terminal 12 aa], the protein stability index under setting [1] is 0.517 ± 0.023 and the protein stability index (genetic background: wild type) is 0.2402 ± 0.0014.

Consider SRTPPARRQRHR [CWC22 C-terminal 12 aa], for which the protein stability index by setting is: under setting [1], 0.7133 ± 0.0015; (genetic background: wild type) 0.671 ± 0.012.

For SSDEEENEKELP [PWP2 C-terminal 12 aa], the protein stability index by setting is: under setting [1], 0.67854 ± 0.00042; (genetic background: wild type) 0.705 ± 0.039.

In the case of SSKAIQGNFDDL [SPB4 C-terminal 12 aa], the protein stability index by setting is: under setting [1], 0.704 ± 0.018; (genetic background: wild type) 0.714 ± 0.047.

In turn, SSLDEVLAKDKD [MIN8 C-terminal 12 aa] returned a protein stability index under setting [1] of 0.736 ± 0.018 and a protein stability index (genetic background: wild type) of 0.6795 ± 0.0061.

For the sequence SSSSFISYPPQR [MAD3 C-terminal 12 aa], the protein stability index amounted to 0.728 ± 0.019 under setting [1] and 0.6977 ± 0.0019 (genetic background: wild type).

Regarding STAVRSIDALKN [HSP31 C-terminal 12 aa], the protein stability index stood at 0.701 ± 0.042 under setting [1] and 0.687 ± 0.0074 (genetic background: wild type).

Take STERAKELLESN [MRF1 C-terminal 12 aa]: the protein stability index under setting [1] stood at 0.666 ± 0.026 and the protein stability index (genetic background: wild type) turned out to be 0.69 ± 0.033.

With STGSETKIADCR [HSM3 C-terminal 12 aa], the protein stability index amounted to 0.683 ± 0.01 under setting [1] and 0.695 ± 0.021 (genetic background: wild type).

For STSGESFTETQF [ICL2 C-terminal 12 aa], the protein stability index amounted to 0.6971 ± 0.0022 under setting [1] and 0.73 ± 0.054 (genetic background: wild type).

The sequence STTIRAINALYS [HSP32 C-terminal 12 aa] returned a protein stability index under setting [1] of 0.675 ± 0.017 and a protein stability index (genetic background: wild type) of 0.65 ± 0.037.

As for SVFGEAEEVTNW [MET2 C-terminal 12 aa], the protein stability index by setting is: under setting [1], 0.701 ± 0.017; (genetic background: wild type) 0.702 ± 0.031.

For the origin of these results see the supplement of paper PMC10724198.
